# Test results taken from patent US20140154252A1 (EMERGENT PRODUCT DEVELOPMENT SEATTLE, published 2014).
# T1: CD20 (human, UniProt P11836 1-297)
# T1 construct: whole, on cells; 2H7 is called murine anti-human CD20; also called CD20 presented on WIL-2S cells; CD20 on Ramos, BJAB, SU-DHL-6 and DoHH2 B cells
# T1 sequence (looked up): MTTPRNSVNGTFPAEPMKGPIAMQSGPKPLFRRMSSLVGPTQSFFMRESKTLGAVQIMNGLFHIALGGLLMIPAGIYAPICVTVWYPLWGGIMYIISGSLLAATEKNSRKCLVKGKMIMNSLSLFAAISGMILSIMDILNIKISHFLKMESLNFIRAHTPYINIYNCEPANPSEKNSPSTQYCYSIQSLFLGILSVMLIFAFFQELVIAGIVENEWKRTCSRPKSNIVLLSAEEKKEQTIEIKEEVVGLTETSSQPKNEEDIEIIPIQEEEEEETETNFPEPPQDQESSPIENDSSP
# B1: 2H7-sss-hIgG-L6-2e12 (H6 linker, 2e12 VL-VH) (bispecific antibody)
# chain (part 1 of 2): QIVLSQSPAILSASPGEKVTMTCRASSSVSYMHWYQQKPGSSPKPWIYAPSNLASGVPARFSGSGSGTSYSLTISRVEAEDAATYYCQQWSFNPPTFGAGTKLELKDGGGSGGGGSGGGGSSQAYLQQSGAESVRPGASVKMSCKASGYTFTSYNMHWVKQTPRQGLEWIGAIYPGNGDTSYNQKFKGKATLTVDKSSSTAYMQLSSLTSEDSAVYFCARVVYYSNSYWYFDVWGTGTTVTVSEPKSSDKTHTSPPSP
# chain (part 2 of 2): GGGGSGGGGSGGGGSGNSDIVLTQSPASLAVSLGQRATISCRASESVEYYVTSLMQWYQQKPGQPPKLLISAASNVESGVPARFSGSGSGTDFSLNIHPVEEDDIAMYFCQQSRKVPWTFGGGTKLEIKRGGGGSGGGGSGGGGSQVQLKESGPGLVAPSQSLSITCTVSGFSLTGYGVNWVRQPPGKGLEWLGMIWGDGSTDYNSALKSRLSITKDNSKSQVFLKMNSLQTDDTARYYCARDGYSNFHYYVMDYWGQGTSVTVSS
# notes: Assembled from modules as m10; not shown: human IgG1 CH2-CH3
# B2: 2H7-sss-hIgG-L1-2e12 (H1 linker, 2e12 VL-VH) (bispecific antibody)
# chain (part 1 of 2): B1 chain (part 1 of 2)
# chain (part 2 of 2): NSDIVLTQSPASLAVSLGQRATISCRASESVEYYVTSLMQWYQQKPGQPPKLLISAASNVESGVPARFSGSGSGTDFSLNIHPVEEDDIAMYFCQQSRKVPWTFGGGTKLEIKRGGGGSGGGGSGGGGSQVQLKESGPGLVAPSQSLSITCTVSGFSLTGYGVNWVRQPPGKGLEWLGMIWGDGSTDYNSALKSRLSITKDNSKSQVFLKMNSLQTDDTARYYCARDGYSNFHYYVMDYWGQGTSVTVSS
# notes: as for B1
# B3: 2H7-sss-hIgG-L2-2e12 (H2 linker, 2e12 VL-VH) (bispecific antibody)
# chain (part 1 of 2): B1 chain (part 1 of 2)
# chain (part 2 of 2): GGGGSGNSDIVLTQSPASLAVSLGQRATISCRASESVEYYVTSLMQWYQQKPGQPPKLLISAASNVESGVPARFSGSGSGTDFSLNIHPVEEDDIAMYFCQQSRKVPWTFGGGTKLEIKRGGGGSGGGGSGGGGSQVQLKESGPGLVAPSQSLSITCTVSGFSLTGYGVNWVRQPPGKGLEWLGMIWGDGSTDYNSALKSRLSITKDNSKSQVFLKMNSLQTDDTARYYCARDGYSNFHYYVMDYWGQGTSVTVSS
# notes: as for B1
# B4: 2H7-sss-hIgG-L4-2e12 (H4 linker, 2e12 VL-VH) (bispecific antibody)
# chain (part 1 of 2): B1 chain (part 1 of 2)
# chain (part 2 of 2): GGGGSGGGGSGNSDIVLTQSPASLAVSLGQRATISCRASESVEYYVTSLMQWYQQKPGQPPKLLISAASNVESGVPARFSGSGSGTDFSLNIHPVEEDDIAMYFCQQSRKVPWTFGGGTKLEIKRGGGGSGGGGSGGGGSQVQLKESGPGLVAPSQSLSITCTVSGFSLTGYGVNWVRQPPGKGLEWLGMIWGDGSTDYNSALKSRLSITKDNSKSQVFLKMNSLQTDDTARYYCARDGYSNFHYYVMDYWGQGTSVTVSS
# notes: as for B1
# B5: 2H7-sss-hIgG-L3-2e12 (H3 linker, 2e12 VL-VH) (bispecific antibody)
# chain (part 1 of 2): B1 chain (part 1 of 2)
# chain (part 2 of 2): NYGGGGSGNSDIVLTQSPASLAVSLGQRATISCRASESVEYYVTSLMQWYQQKPGQPPKLLISAASNVESGVPARFSGSGSGTDFSLNIHPVEEDDIAMYFCQQSRKVPWTFGGGTKLEIKRGGGGSGGGGSGGGGSQVQLKESGPGLVAPSQSLSITCTVSGFSLTGYGVNWVRQPPGKGLEWLGMIWGDGSTDYNSALKSRLSITKDNSKSQVFLKMNSLQTDDTARYYCARDGYSNFHYYVMDYWGQGTSVTVSS
# notes: as for B1
# B6: 2H7-sss-hIgG-L5-2e12 (H5 linker, 2e12 VL-VH) (bispecific antibody)
# chain (part 1 of 2): B1 chain (part 1 of 2)
# chain (part 2 of 2): NYGGGGSGGGGSGNSDIVLTQSPASLAVSLGQRATISCRASESVEYYVTSLMQWYQQKPGQPPKLLISAASNVESGVPARFSGSGSGTDFSLNIHPVEEDDIAMYFCQQSRKVPWTFGGGTKLEIKRGGGGSGGGGSGGGGSQVQLKESGPGLVAPSQSLSITCTVSGFSLTGYGVNWVRQPPGKGLEWLGMIWGDGSTDYNSALKSRLSITKDNSKSQVFLKMNSLQTDDTARYYCARDGYSNFHYYVMDYWGQGTSVTVSS
# notes: as for B1
# B7: 2H7-sss-hIgG P238S/P331S-H2-2e12 VHVL (bispecific antibody)
# chain: QIVLSQSPAILSASPGEKVTMTCRASSSVSYMHWYQQKPGSSPKPWIYAPSNLASGVPARFSGSGSGTSYSLTISRVEAEDAATYYCQQWSFNPPTFGAGTKLELKDGGGSGGGGSGGGGSSQAYLQQSGAESVRPGASVKMSCKASGYTFTSYNMHWVKQTPRQGLEWIGAIYPGNGDTSYNQKFKGKATLTVDKSSSTAYMQLSSLTSEDSAVYFCARVVYYSNSYWYFDVWGTGTTVTVSEPKSSDKTHTSPPSPAPELLGGSSVFLFPPKPKDTLMISRTPEVTCVVVDVSHEDPEVKFNWYVDGVEVHNAKTKPREEQYNSTYRVVSVLTVLHQDWLNGKEYKCKVSNKALPASIEKTISKAKGQPREPQVYTLPPSRDELTKNQVSLTCLVKGFYPSDIAVEWESNGQPENNYKTTPPVLDSDGSFFLYSKLTVDKSRWQQGNVFSCSVMHEALHNHYTQKSLSLSPGKGGGGSGNSQVQLKESGPGLVAPSQSLSITCTVSGFSLTGYGVNWVRQPPGKGLEWLGMIWGDGSTDYNSALKSRLSITKDNSKSQVFLKMNSLQTDDTARYYCARDGYSNFHYYVMDYWGQGTSVTVSSGGGGSGGGGSGGGGSGGGGSDIVLTQSPASLAVSLGQRATISCRASESVEYYVTSLMQWYQQKPGQPPKLLISAASNVESGVPARFSGSGSGTDFSLNIHPVEEDDIAMYFCQQSRKVPWTFGGGTKLEIKR
# notes: Assembled from modules as m11; also called 2H7-sss-hIgG-H2-2e12 HL
# B8: 2H7-sss-hIgG P238S/P331S-H4-2e12 VHVL (bispecific antibody)
# chain: QIVLSQSPAILSASPGEKVTMTCRASSSVSYMHWYQQKPGSSPKPWIYAPSNLASGVPARFSGSGSGTSYSLTISRVEAEDAATYYCQQWSFNPPTFGAGTKLELKDGGGSGGGGSGGGGSSQAYLQQSGAESVRPGASVKMSCKASGYTFTSYNMHWVKQTPRQGLEWIGAIYPGNGDTSYNQKFKGKATLTVDKSSSTAYMQLSSLTSEDSAVYFCARVVYYSNSYWYFDVWGTGTTVTVSEPKSSDKTHTSPPSPAPELLGGSSVFLFPPKPKDTLMISRTPEVTCVVVDVSHEDPEVKFNWYVDGVEVHNAKTKPREEQYNSTYRVVSVLTVLHQDWLNGKEYKCKVSNKALPASIEKTISKAKGQPREPQVYTLPPSRDELTKNQVSLTCLVKGFYPSDIAVEWESNGQPENNYKTTPPVLDSDGSFFLYSKLTVDKSRWQQGNVFSCSVMHEALHNHYTQKSLSLSPGKGGGGSGGGGSGNSQVQLKESGPGLVAPSQSLSITCTVSGFSLTGYGVNWVRQPPGKGLEWLGMIWGDGSTDYNSALKSRLSITKDNSKSQVFLKMNSLQTDDTARYYCARDGYSNFHYYVMDYWGQGTSVTVSSGGGGSGGGGSGGGGSGGGGSDIVLTQSPASLAVSLGQRATISCRASESVEYYVTSLMQWYQQKPGQPPKLLISAASNVESGVPARFSGSGSGTDFSLNIHPVEEDDIAMYFCQQSRKVPWTFGGGTKLEIKR
# notes: Assembled from modules as m11; also called 2H7-sss-hIgG-H4-2e12 HL
# B9: 2H7-sss-hIgG P238S/P331S-H1-2e12 VHVL (bispecific antibody)
# chain: QIVLSQSPAILSASPGEKVTMTCRASSSVSYMHWYQQKPGSSPKPWIYAPSNLASGVPARFSGSGSGTSYSLTISRVEAEDAATYYCQQWSFNPPTFGAGTKLELKDGGGSGGGGSGGGGSSQAYLQQSGAESVRPGASVKMSCKASGYTFTSYNMHWVKQTPRQGLEWIGAIYPGNGDTSYNQKFKGKATLTVDKSSSTAYMQLSSLTSEDSAVYFCARVVYYSNSYWYFDVWGTGTTVTVSEPKSSDKTHTSPPSPAPELLGGSSVFLFPPKPKDTLMISRTPEVTCVVVDVSHEDPEVKFNWYVDGVEVHNAKTKPREEQYNSTYRVVSVLTVLHQDWLNGKEYKCKVSNKALPASIEKTISKAKGQPREPQVYTLPPSRDELTKNQVSLTCLVKGFYPSDIAVEWESNGQPENNYKTTPPVLDSDGSFFLYSKLTVDKSRWQQGNVFSCSVMHEALHNHYTQKSLSLSPGKNSQVQLKESGPGLVAPSQSLSITCTVSGFSLTGYGVNWVRQPPGKGLEWLGMIWGDGSTDYNSALKSRLSITKDNSKSQVFLKMNSLQTDDTARYYCARDGYSNFHYYVMDYWGQGTSVTVSSGGGGSGGGGSGGGGSGGGGSDIVLTQSPASLAVSLGQRATISCRASESVEYYVTSLMQWYQQKPGQPPKLLISAASNVESGVPARFSGSGSGTDFSLNIHPVEEDDIAMYFCQQSRKVPWTFGGGTKLEIKR
# notes: Assembled from modules as m11; also called 2H7-sss-hIgG-H1-2e12 HL; TRU015-sss-IgG-H1-2e12 HL
# B10: 2H7-sss-hIgG P238S/P331S-H5-2e12 VHVL (bispecific antibody)
# chain: QIVLSQSPAILSASPGEKVTMTCRASSSVSYMHWYQQKPGSSPKPWIYAPSNLASGVPARFSGSGSGTSYSLTISRVEAEDAATYYCQQWSFNPPTFGAGTKLELKDGGGSGGGGSGGGGSSQAYLQQSGAESVRPGASVKMSCKASGYTFTSYNMHWVKQTPRQGLEWIGAIYPGNGDTSYNQKFKGKATLTVDKSSSTAYMQLSSLTSEDSAVYFCARVVYYSNSYWYFDVWGTGTTVTVSEPKSSDKTHTSPPSPAPELLGGSSVFLFPPKPKDTLMISRTPEVTCVVVDVSHEDPEVKFNWYVDGVEVHNAKTKPREEQYNSTYRVVSVLTVLHQDWLNGKEYKCKVSNKALPASIEKTISKAKGQPREPQVYTLPPSRDELTKNQVSLTCLVKGFYPSDIAVEWESNGQPENNYKTTPPVLDSDGSFFLYSKLTVDKSRWQQGNVFSCSVMHEALHNHYTQKSLSLSPGKNYGGGGSGGGGSGNSQVQLKESGPGLVAPSQSLSITCTVSGFSLTGYGVNWVRQPPGKGLEWLGMIWGDGSTDYNSALKSRLSITKDNSKSQVFLKMNSLQTDDTARYYCARDGYSNFHYYVMDYWGQGTSVTVSSGGGGSGGGGSGGGGSGGGGSDIVLTQSPASLAVSLGQRATISCRASESVEYYVTSLMQWYQQKPGQPPKLLISAASNVESGVPARFSGSGSGTDFSLNIHPVEEDDIAMYFCQQSRKVPWTFGGGTKLEIKR
# notes: Assembled from modules as m11; also called 2H7-sss-hIgG-H5-2e12 HL
# Target: T1, CD20
# Assay: flow cytometry on WIL2-S cells (CD20), protein A purified protein at 0.72 ug/ml, FITC goat anti-human IgG
# Protocol: “L1-L6” refers to the 2H7-sss-hIgG-Lx-2e12 molecules where […] represents the L1-L6 linkers and the 2e12 V regions in the orientation of VL-VH. All the molecules were tested at a concentration of 0.72 μg/ml, and the binding detected using FITC conjugated goat anti-human IgG at 1:100.
row,binding result,Binder
1,binds,B1
2,binds,B2
3,binds,B3
4,binds,B4
5,binds,B5
6,binds,B6
7,binds,B7
8,binds,B8
9,binds,B9
10,binds,B10
